# In US20190178879A1:
# Tests used:
# [1] = target: human CD3 cell surface antigen on PBMCs (human) (UniProt P07766); experiment: flow cytometry on human PBMCs, detected with rat anti-mouse PE
# [2] = target: human CD3 cell surface antigen on PBMCs (human) (UniProt P07766); experiment: flow cytometry on human PBMCs, detected with anti-PEG/HL647 label
# [3] = target: human CD45 on PBMCs (human) (UniProt P08575); experiment: as above
# [4] = target: anti-pHIS antibody (clone J099B12, Biolegend), fluorescently labeled with AlexaFluor 488; experiment: flow cytometry competition, release format: soluble pHIS added after anti-pHIS antibody was bound to pHIS-conjugated particles
# [5] = target: anti-pHIS/CD3 TAC (tetrameric antibody complex of anti-pHIS antibody and anti-CD3 antibody); experiment: cell-based or functional assay
# [6] = target: anti-pHIS antibody (clone J099B12, Biolegend), fluorescently labeled with AlexaFluor 488; experiment: flow cytometry competition, inhibition format: soluble pHIS preincubated with anti-pHIS antibody before pHIS-conjugated particles
# Sequence of UniProt P07766 (P07766 23-207): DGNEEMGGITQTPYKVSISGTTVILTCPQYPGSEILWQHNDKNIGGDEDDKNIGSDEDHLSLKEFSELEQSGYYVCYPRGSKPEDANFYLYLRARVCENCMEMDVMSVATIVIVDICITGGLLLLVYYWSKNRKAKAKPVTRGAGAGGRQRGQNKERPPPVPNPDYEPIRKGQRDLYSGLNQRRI
# Sequence of UniProt P08575 (P08575 26-1306): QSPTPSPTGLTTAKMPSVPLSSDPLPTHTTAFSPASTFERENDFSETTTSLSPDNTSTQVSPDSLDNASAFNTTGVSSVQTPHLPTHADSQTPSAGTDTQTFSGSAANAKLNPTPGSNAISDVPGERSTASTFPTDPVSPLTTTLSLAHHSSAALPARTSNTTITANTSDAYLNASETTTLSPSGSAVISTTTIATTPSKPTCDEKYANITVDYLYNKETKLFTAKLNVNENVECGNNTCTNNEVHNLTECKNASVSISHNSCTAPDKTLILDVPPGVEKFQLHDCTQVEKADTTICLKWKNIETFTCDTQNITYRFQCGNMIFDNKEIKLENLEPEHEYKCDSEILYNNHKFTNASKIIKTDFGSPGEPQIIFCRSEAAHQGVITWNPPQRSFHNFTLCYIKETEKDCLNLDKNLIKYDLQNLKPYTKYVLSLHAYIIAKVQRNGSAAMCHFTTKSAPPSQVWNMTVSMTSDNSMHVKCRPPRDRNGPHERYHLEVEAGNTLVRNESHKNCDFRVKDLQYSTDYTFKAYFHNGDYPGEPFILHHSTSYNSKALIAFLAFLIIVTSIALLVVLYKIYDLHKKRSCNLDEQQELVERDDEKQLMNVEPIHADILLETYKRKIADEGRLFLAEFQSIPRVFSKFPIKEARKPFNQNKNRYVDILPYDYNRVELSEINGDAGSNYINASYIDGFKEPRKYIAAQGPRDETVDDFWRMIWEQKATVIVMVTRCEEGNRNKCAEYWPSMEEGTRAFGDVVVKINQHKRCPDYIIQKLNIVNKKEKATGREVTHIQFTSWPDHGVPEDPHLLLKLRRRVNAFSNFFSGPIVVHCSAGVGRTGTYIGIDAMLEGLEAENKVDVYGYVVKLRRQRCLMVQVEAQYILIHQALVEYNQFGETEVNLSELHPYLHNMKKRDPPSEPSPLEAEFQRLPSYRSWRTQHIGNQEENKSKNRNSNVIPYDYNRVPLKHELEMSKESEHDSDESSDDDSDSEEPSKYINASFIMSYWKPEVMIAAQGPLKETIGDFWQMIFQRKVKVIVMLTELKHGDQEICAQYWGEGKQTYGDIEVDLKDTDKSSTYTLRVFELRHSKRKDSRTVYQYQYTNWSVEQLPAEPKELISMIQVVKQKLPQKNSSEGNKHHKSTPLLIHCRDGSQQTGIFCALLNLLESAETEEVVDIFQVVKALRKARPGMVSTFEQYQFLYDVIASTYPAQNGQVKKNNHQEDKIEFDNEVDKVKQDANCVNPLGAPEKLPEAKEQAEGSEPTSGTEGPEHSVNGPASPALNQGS
substance,measurement,setting,value
CD3 antibody (clone UCHT1),percent of lymphocytes with a CD3+ signal,[1],87.8%
CD3 antibody (clone UCHT1) PEGylated with 30 kDa PEG,percent of cells with a positive signal,[2],83.4%
CD45 antibody (clone MEM-28) PEGylated with 30 kDa PEG,percent of cells with a positive signal,[3],> 96%
"soluble pHIS (polyhistidine) peptide, 0.84 kDa",IC50,[4],237 µM
same,"% Rel (release efficiency), average, n = 2",[5],69.3%
same,particle release efficiency,[5],72%
same,IC50,[6],1.9 µM
